The values below come from patent US20260055398A1, “IMPROVED POLYMER DEGRADING ENZYMES” (CAMBRIDGE ENTERPRISE LIMITED, priority 2022, published 2026).

The nature of data set [1]: Light scattering of microdroplets with enzyme and PET nanoparticles. To be noted: 600 nM enzyme co-encapsulated with PET nanoparticles, versus buffer control. It counts as biochemical. On the procedure:
(A) As described in FIG. 1, for the screening of metagenomic libraries for esterase activity isolated environmental DNA (eDNA) was cloned into plasmids. After the transformation of bacterial cells, single ones were co-encapsulated in microdroplets with lysis agent and the fluorescein dihexanoate substrate. After an off-chip incubation, the droplets were reinjected into the FADS sorting device and positive hits selected. After DNA recovery the re-screening and sequencing lead to a novel esterase showing promiscuous activity on PET. This enzyme was used to generate a sequence network together with known PETases. CI5En2 was identified in of the clusters as a novel PET hydrolase. This enzyme was subjected to a directed evolution campaign. Single bacterial cells were encapsulated in microdroplets together with lysis agent and PET nanoparticles serving as the substrate of the assay. Droplets were incubated in droplet chambers and reinjected into the sorting module. The SADS module relies on fiber optics integrated into a chip at a 90° angle. Schematic picture showing the main principle of the assay. […] The dielectrophoretic sorting of “positive” droplets is triggered when the measured value is within a user-defined threshold. (C) Histogram of the detected light scattering for co-encapsulated CI5En2 (600 nM) or a buffer control and PET nanoparticles. […]

Data set [2] in a line: Enzymatic degradation of PET (nanoparticles, film), HPLC of released TPA and MHET. It is filed as biochemical. The source says: (A) Sequence network of currently known PETases and a novel esterase metagenomic-derived, RR11O2. […] Grey nodes represent sequences extracted from MGnify and NCBI. Red node represents RR11O2, blue nodes represent known PETases, green and orange nodes represent reported cutinases and esterases showing PET activity, respectively, and light blue nodes represent described polyester degrading enzymes in the literature. To putatively characterise sequence clusters, the identification of PETases, cutinases, esterases and RR11O2 in the network helped to define the potential clusters. The cluster of RR11O2, CI5En2 and PETase are written in grey. (B) PET hydrolases catalyze the depolymerization of poly(ethylene terephthalate) (PET) to bis(2-hydroxyethyl) terephthalate (BHET), mono(2-hydroxyethyl)-terephthalic (MHET) or terephthalic acid (TPA) and ethylene glycol (EG). During characterizations via high-performance liquid chromatography (HPLC) MHET and TPA have been identified as main products. […] Absorbance at 250 nm was monitored.
(A) Enrichment of variants with higher activity compared to wildtype after sorting the ep-PCR library of CI5En2. […] Amount of the released monomers TPA and MHET was determined via HPLC and corresponding standard curves for TPA and MHET. […]
HPLC analysis of the products released after one week incubation at 30° C. using 6 μM pExp-bla-CI5En2-WT. Absorbance at 250 nm was monitored which detects released TPA and MHET.
To detect the release of TPA, MHET and BHET in the presence of various enzymes, aliquots were taken from reaction mixtures, turnover was stopped by addition of an equal volume of methanol containing 0.5% formic acid, centrifuged (16,100×g, 15 min) and analysed by HPLC (1260 Infinity II, Agilent; Nucleodur C18 analytical EC standard column (5 μm, 4×125 mm, Macherey-Nagel, Germany). As the mobile phase mixtures of buffer A (0.1% formic acid in distilled water) and buffer C (distilled water), as well as buffer D (acetonitrile) were used at a flow rate of 1 mL/min. Buffer A was kept at 20% for the whole run. […]

B1: CI5En2: novel PET hydrolase identified from a sequence network cluster; amino acid SEQ ID NO. 2 (protein)
chain: MADYAKGPAPTVALLTAPAGPYQTATYKIAAADAKAFNYGGATVHYPVAKAPGETFGVVVMVPGFLAFQAVYDWLVSRVASHGFVVVNMDTVGRGDYPDERAEQAAGALRHVVSLAQAGTAPYAPVADTSRRAVMGNSMGGGASLSAAVVDPTLKAVVALQPWHTTKSFTGVASPTLVVACEKDSIAPNKSHSDVFYNSLSAALPRAEIEMRGAGHLCATFLATAAQKTTMAKSSVAWLKRFLDNDMRYDAMVKGGIDQGEFSRFVV
modifications: C15EN2
Take B1: the “detected light scattering signal of droplets” value in data set [1] is “decreases over time”. Besides, the “activity against PET nanoparticles with different crystallinity” value in data set [2] (amorphous and crystalline PET NPs) is reported as “showed activity”. In data set [2] (at 30° C.), the “PET degrading activity compared with IsPETase and LCC” value was “activity comparable to IsPETase and higher than LCC”.
